Assays:
Test in all cases: ELISA, antibody coated, OX40-ECD.His mutant supernatant; relative to silent alanine substitutions;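 further: captured OX40 mutant protein detected with HRP-labelled anti-His antibody, absorbance read-out, scaled to the mean signal of control mutants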
[1] = biological target: T1, human OX40-ECD.His N88A (human, UniProt P43489 29-214)
T1 construct: extracellular domain; not shown: C-terminal His-tag
T1 sequence (looked up): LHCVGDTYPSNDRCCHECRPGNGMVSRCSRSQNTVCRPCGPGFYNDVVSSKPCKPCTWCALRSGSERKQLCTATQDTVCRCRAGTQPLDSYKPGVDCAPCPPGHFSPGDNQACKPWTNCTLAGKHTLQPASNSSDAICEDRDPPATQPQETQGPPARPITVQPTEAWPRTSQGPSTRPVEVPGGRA

[2] = biological target: T2, human OX40-ECD.His E94A (human, UniProt P43489 29-214)
T2 construct: extracellular domain; not shown: C-terminal His-tag
T2 sequence (looked up): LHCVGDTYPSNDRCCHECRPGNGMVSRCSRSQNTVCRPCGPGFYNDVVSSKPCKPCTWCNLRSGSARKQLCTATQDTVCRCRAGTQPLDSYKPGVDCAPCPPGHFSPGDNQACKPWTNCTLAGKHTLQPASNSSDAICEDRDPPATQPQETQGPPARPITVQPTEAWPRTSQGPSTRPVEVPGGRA

[3] = biological target: T3, human OX40-ECD.His A164G (human, UniProt P43489 29-214)
T3 construct: extracellular domain; not shown: C-terminal His-tag
T3 sequence (looked up): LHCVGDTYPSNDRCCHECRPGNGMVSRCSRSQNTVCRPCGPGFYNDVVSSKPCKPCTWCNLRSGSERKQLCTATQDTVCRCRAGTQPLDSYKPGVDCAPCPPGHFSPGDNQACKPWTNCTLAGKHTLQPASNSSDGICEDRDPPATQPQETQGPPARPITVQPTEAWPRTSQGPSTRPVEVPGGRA

[4] = biological target: T4, human OX40-ECD.His N39A (human, UniProt P43489 29-214)
T4 construct: extracellular domain; not shown: C-terminal His-tag
T4 sequence (looked up): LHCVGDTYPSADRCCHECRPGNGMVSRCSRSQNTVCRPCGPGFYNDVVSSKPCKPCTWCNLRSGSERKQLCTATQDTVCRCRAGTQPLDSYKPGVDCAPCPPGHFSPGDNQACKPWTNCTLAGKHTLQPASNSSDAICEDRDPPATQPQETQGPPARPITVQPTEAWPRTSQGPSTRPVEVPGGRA

[5] = biological target: T5, human OX40-ECD.His A126G (human, UniProt P43489 29-214)
T5 construct: extracellular domain; not shown: C-terminal His-tag
T5 sequence (looked up): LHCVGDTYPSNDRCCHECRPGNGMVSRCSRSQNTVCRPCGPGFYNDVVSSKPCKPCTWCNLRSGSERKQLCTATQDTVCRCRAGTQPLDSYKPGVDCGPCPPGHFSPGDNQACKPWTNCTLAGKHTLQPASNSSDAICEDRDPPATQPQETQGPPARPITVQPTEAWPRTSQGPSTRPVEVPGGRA

[6] = biological target: T6, human OX40-ECD.His V75A (human, UniProt P43489 29-214)
T6 construct: extracellular domain; not shown: C-terminal His-tag
T6 sequence (looked up): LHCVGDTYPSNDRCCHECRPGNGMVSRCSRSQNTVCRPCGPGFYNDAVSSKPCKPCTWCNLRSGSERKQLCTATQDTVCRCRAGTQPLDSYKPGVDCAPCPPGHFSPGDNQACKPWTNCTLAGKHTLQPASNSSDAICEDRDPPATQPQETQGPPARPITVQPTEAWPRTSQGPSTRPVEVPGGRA

[7] = biological target: T7, human OX40-ECD.His L116A (human, UniProt P43489 29-214)
T7 construct: extracellular domain; not shown: C-terminal His-tag
T7 sequence (looked up): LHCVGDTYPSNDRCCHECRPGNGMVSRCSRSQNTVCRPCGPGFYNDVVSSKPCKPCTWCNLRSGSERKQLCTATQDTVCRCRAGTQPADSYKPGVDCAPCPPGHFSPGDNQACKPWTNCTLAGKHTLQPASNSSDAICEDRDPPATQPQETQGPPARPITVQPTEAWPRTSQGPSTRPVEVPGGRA

[8] = biological target: T8, human OX40-ECD.His S159A (human, UniProt P43489 29-214)
T8 construct: extracellular domain; not shown: C-terminal His-tag
T8 sequence (looked up): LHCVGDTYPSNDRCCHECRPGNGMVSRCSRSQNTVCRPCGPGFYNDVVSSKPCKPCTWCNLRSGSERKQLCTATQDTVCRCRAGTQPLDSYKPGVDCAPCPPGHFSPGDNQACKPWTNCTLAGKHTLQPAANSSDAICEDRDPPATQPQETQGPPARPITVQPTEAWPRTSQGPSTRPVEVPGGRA

[9] = biological target: T9, human OX40-ECD.His G92A (human, UniProt P43489 29-214)
T9 construct: extracellular domain; not shown: C-terminal His-tag
T9 sequence (looked up): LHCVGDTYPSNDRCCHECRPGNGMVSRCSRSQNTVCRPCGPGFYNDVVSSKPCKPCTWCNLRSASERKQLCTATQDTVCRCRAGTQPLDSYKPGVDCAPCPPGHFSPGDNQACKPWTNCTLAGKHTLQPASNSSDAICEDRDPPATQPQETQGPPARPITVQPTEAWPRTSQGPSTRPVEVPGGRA

[10] = biological target: T10, human OX40-ECD.His G151A (human, UniProt P43489 29-214)
T10 construct: extracellular domain; not shown: C-terminal His-tag
T10 sequence (looked up): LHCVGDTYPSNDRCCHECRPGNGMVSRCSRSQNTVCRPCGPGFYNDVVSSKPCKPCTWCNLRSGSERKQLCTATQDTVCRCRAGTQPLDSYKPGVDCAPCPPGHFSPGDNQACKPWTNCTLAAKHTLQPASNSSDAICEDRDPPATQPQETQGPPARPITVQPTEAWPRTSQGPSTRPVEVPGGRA

Fold Change [1]: 0.429 | Fold Change [2]: 0.716 | Fold Change [3]: 0.47 | Fold Change [4]: 0.988 | Fold Change [5]: 0.954 | Fold Change [6]: 0.994 | Fold Change [7]: 0.982 | Fold Change [8]: 0.458 | Fold Change [9]: 0.233 | Fold Change [10]: 0.742
B1: 1.134.9-u1-IgG1L (antibody, V domains shown)
VH: QVQLQESGPGLVKPSGTLSLTCAVSGGSISSYNWWSWVRQPPGKGLEWIGEIYHGGNTNYNPSLKSRVTMSVDNSKNQFSLKLSSVTAADTAVYYCARAPGDWGGSPYFDFWGQGTLVTVSS
VL: SSELTQDPAVSVALGQTVRITCQGDNLRTYYASWYQQKPGQAPILLIYGRNKRPSGIPDRFSGSSSGNTASLTITGAQAEDEAAYYCNSRDSSGNPVVFGGGTKLTVL
notes: fully human IgG1, lambda
